Test results from patent US20190145987A1 (UNIVERSIT LIBRE DE BRUXELLES, published 2019).

Molecular target: human DPP6 protein (human, UniProt P42658 117-865, limits assumed)
Assay: affinity versus the human DPP6 protein; method not stated

Sequence of human DPP6 protein (P42658 117-865 limits assumed): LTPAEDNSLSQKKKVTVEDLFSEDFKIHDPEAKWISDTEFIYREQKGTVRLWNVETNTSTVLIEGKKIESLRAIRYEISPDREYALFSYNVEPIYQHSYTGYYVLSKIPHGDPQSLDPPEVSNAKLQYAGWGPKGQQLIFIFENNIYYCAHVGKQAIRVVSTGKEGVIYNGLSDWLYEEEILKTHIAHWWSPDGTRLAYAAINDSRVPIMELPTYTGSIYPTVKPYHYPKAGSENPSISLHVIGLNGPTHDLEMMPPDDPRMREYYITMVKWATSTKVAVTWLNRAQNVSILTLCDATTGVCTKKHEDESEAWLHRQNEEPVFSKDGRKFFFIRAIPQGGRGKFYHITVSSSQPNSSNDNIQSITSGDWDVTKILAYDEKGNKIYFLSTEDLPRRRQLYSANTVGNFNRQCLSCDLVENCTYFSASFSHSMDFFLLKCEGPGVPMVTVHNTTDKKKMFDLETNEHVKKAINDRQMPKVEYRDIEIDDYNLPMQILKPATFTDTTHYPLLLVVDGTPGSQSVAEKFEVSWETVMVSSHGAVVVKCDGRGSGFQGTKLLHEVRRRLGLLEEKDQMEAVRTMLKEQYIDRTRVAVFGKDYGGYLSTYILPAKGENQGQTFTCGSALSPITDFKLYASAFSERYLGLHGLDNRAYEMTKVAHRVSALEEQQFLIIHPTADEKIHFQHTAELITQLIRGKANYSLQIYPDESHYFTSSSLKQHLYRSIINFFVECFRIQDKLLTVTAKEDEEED

Kd: 1.2 nM
B1: nanobody 4hD29 (VHH)
VHH: QVQLQESGGGLVQPGGSLRLSCAASGFTFSSNYMTWVRQAPGKGPEWVSGINPDGSSTYYADSVKGRFTISRDNAKNTLYLQMNSLKSEDTALYKCATGAAPRIPTTLRGQGTQVTVSS
notes: also called Nb 4hD29; 4hD29 Nb
